Target: T1, Rpn1 regulatory subunit 1 (Rpn1 394-568), as used for NMR titration and ITC (human, UniProt Q13200 394-568)
T1 construct: source: E. coli BL21 (DE3), purified (size exclusion chromatography)
Experiment: ITC; VP-ITC, 25°C, NMR buffer; 20 µM Rpn1 regulatory subunit 1 in the cell, 25 injections of 6 µL of 400 µM UBL domain; one-site fit
Conditions: both partners purified

T1 sequence (Q13200 394-568): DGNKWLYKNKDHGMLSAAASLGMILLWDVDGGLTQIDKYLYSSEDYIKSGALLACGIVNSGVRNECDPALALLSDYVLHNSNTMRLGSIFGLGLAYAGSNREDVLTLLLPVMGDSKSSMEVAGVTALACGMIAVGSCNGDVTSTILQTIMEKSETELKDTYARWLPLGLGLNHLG

B1: UBL domain of hUBLCP1 (UBLCP1 1-81), as used for NMR and ITC (domain or fragment, human, UniProt Q8WVY7 1-81, looked up)
chain: MALPIIVKWGGQEYSVTTLSEDDTVLDLKQFLKTLTGVLPERQKLLGLKVKGKPAENDVKLGALKLKPNTKIMMMGTREES
notes: UBL domain of human UBLCP1, residues 1-81; 15N-labelled (M9 medium) for the NMR titration; also called 15N-labeled UBL domain; source: E. coli BL21 (DE3), purified (size exclusion chromatography)
Question: With B1 as the binder, how does the Kd read?
Answer: Its Kd is 10.3 µM.

Question: And the dH?
Answer: The dH was -53.8 kcal/mol.

Source: publication PMC3646893, “Solution Structure and Rpn1 Interaction of the UBL Domain of Human RNA Polymerase II C-Terminal Domain Phosphatase” (PLoS ONE, 2013)
